Source: patent US20200317768A1 (published 2020)
Values belong to the binder of their own block, whether it stands above or below them.

Tests used:
[1] = target: T1, cyno FcγRIIIaS extracellular domain with C-terminal His-tag (cynomolgus monkey, UniProt A3RFZ7 21-206 (rhesus entry)); assay: SPR (BIACORE T200/4000), antibody captured, FcγR as analyte, 25 C
T1 construct: also called FcgRIIIaS; not shown: His-tag added to the C-terminus

[2] = target: T2, human FcγRIIIaV extracellular domain with C-terminal His-tag (human, UniProt P08637 17-208); assay: as above
T2 construct: also called FcgRIIIaV; not shown: His-tag added to the C-terminus

Human latent myostatin [3] = target: T3, Human latent myostatin (human, UniProt O14793 25-266; O14793 267-375); assay: SPR (BIACORE), additional dissociation phase at pH5.8 after dissociation at pH7.4, Scrubber 2.0 fit
T3 construct: Biotinylated in the ELISAs; also called human myostatin latent form
T3 sequence 1: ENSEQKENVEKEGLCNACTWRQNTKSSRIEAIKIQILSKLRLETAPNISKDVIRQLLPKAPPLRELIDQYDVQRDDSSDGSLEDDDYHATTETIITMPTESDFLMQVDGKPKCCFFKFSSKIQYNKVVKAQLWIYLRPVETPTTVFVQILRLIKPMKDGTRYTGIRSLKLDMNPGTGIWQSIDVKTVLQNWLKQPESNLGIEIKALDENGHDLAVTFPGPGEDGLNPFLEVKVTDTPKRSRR
T3 sequence 2: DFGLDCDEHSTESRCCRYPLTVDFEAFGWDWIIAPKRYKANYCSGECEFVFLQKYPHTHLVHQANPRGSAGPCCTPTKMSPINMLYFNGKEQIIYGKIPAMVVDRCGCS
Procedure: (§1) Each amino acid in the CDRs was individually mutated to histidine using In-Fusion HD Cloning Kit (Clontech Inc, or Takara Bio company) according to the manufacturer's instructions. […] All histidine-substituted variants were evaluated by a modified BIACORE® assay as compared to that described above. Briefly, an additional dissociation phase at pH5.8 was integrated into the BIACORE® assay immediately after the dissociation phase at pH7.4. This is to assess the pH-dependent dissociation between antibody (Ab) and antigen (Ag) from the complexes formed at pH7.4 as opposed to the corresponding dissociation at pH5.8. The dissociation rate at pH5.8 buffer was determined by processing and fitting data using the Scrubber 2.0 (BioLogic Software) curve fitting software.
(§2) Antibodies with a combination of these mutations in the CDRs were then generated.

Human latent myostatin [4] = target: T3, Human latent myostatin; assay: SPR (BIACORE), additional dissociation phase at pH5.8 after dissociation at pH7.4
Procedure: as §1, §2

GST-hMSTN 141-241aa = target: T4, GST-hMSTN 141-241aa (human, UniProt A1C2U3 141-241 (Pongo pygmaeus entry)); assay: Western blot on GST tagged fragments
T4 construct: As GST-hMSTN 1-100aa; also called eighth fragment; not shown: GST tag from the pGEX4.1 vector
T4 sequence: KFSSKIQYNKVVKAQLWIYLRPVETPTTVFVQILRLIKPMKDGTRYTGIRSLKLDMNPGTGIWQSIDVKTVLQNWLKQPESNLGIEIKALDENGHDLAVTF
Text: (§3) Fragments of the N-terminal propeptide coding region of human latent myostatin were cloned into a pGEX4.1 vector so as to produce GST tagged propeptide fragments of 100 amino acid each, with 80 amino acid overlap (FIG. 22A). Protein expression was induced in transformed BL21 competent cells with Overnight Express Autoinduction System (Merck Millipore) and protein was extracted using the BUGBUSTER® protein extraction reagent (Novagen).

GST-hMSTN 81-180aa = target: T5, GST-hMSTN 81-180aa (human, UniProt A1C2U3 81-180 (Pongo pygmaeus entry)); assay: Western blot on GST tagged fragments
T5 construct: As GST-hMSTN 1-100aa; also called fifth fragment; not shown: GST tag from the pGEX4.1 vector
T5 sequence: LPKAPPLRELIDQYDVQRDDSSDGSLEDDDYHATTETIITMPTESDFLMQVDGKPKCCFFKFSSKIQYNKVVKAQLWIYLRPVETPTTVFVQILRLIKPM
Text: as §3

GST-hMSTN 121-220aa = target: T6, GST-hMSTN 121-220aa (human, UniProt A1C2U3 121-220 (Pongo pygmaeus entry)); assay: Western blot on GST tagged fragments
T6 construct: As GST-hMSTN 1-100aa; also called seventh fragment; not shown: GST tag from the pGEX4.1 vector
T6 sequence: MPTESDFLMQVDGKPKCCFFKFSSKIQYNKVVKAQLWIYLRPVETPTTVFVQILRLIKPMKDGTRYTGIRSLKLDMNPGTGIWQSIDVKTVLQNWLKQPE
Text: as §3

GST-hMSTN 61-160aa = target: T7, GST-hMSTN 61-160aa (human, UniProt O14793 61-160); assay: Western blot on GST tagged fragments
T7 construct: As GST-hMSTN 1-100aa; also called fourth fragment; not shown: GST tag from the pGEX4.1 vector
T7 sequence: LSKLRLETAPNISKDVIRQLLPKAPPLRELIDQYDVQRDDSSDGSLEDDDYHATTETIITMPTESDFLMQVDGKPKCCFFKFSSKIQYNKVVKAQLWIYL
Text: as §3

GST-hMSTN 101-200aa = target: T8, GST-hMSTN 101-200aa (human, UniProt A1C2U3 101-200 (Pongo pygmaeus entry)); assay: Western blot on GST tagged fragments
T8 construct: As GST-hMSTN 1-100aa; also called sixth fragment; not shown: GST tag from the pGEX4.1 vector
T8 sequence: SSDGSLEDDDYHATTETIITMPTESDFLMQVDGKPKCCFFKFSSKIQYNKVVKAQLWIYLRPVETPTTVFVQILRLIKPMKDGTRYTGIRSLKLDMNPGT
Text: as §3

T2 sequence (P08637 17-208 F176V): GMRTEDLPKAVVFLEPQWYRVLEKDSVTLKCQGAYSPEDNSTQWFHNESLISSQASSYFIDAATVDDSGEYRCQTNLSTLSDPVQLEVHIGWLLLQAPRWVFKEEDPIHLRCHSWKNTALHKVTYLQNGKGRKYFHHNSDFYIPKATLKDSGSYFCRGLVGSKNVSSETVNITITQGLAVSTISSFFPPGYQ
T1 sequence (A3RFZ7 21-206): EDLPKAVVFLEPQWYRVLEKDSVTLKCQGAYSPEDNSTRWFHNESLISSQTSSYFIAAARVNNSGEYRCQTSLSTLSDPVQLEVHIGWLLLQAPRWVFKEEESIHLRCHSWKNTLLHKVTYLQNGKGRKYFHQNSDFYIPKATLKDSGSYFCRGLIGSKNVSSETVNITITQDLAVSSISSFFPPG

binding result [1]: binds | binding result [2]: binds
B1: M103205H795-MY009/M103202L889-SK1 (antibody, human IgG1, kappa)
heavy: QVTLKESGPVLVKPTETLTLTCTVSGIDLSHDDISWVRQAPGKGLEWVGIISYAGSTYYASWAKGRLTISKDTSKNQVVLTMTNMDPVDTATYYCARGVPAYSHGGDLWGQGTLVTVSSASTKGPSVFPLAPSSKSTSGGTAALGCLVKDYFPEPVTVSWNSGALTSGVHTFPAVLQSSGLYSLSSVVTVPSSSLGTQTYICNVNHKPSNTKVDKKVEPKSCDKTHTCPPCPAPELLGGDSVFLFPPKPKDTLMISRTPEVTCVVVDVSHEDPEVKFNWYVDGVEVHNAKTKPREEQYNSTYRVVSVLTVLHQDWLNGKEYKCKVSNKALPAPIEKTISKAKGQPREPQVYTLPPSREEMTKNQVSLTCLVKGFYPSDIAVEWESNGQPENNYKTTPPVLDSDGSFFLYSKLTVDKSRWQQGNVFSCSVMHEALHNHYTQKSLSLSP
light: DIVMTQSPATLSLSPGERATLSCTSSQSVYHANWLSWFQQKPGQPPKLLIYWASTLAYGVPSRFSGSGSGTDFTLTISSLQPEDAATYYCAGGYGGGRYAFGQGTKVEIKRTVAAPSVFIFPPSDEQLKSGTASVVCLLNNFYPREAKVQWKVDNALQSGNSQESVTEQDSKDSTYSLSSTLTLSKADYEKHKVYACEVTHQGLSSPVTKSFNRGEC
notes: SG1 with P238D (EU numbering); also called MS1032LO06-MY009; MS1032LO006-MY009

koff (Human latent myostatin [3]): 0.00609 s⁻¹ | fold faster dissociation rate at pH5.8 than the parental antibody Ab001 (Human latent myostatin [4]): > 200 fold
B2: Ab002 (M103205H001 / M103202L000) (antibody, human IgG1, kappa, V domains shown)
VH: QVTLKESGPVLVKPTETLTLTCTVSGIDLSHYDISWVRQAPGKGLEWVGIISYAGSTYYASWAKGRLTISKDTSKNQVVLTMTNMDPVDTATYYCARGVPAYSTGGDLWGQGTLVTVSS
VL: DIVMTQSPATLSLSPGERATLSCQSSQSVYDNNWLSWFQQKPGQPPKLLIYWASTLASGVPSRFSGSGSGTDFTLTISSLQPEDAATYYCAGGYGGGLYAFGQGTKVEIKR
notes: Histidine-substituted variant of MS1032LO00-SG1

binding result (GST-hMSTN 141-241aa): no binding | binding result (GST-hMSTN 81-180aa): no binding | binding result (GST-hMSTN 121-220aa): no binding | binding result (GST-hMSTN 61-160aa): no binding | binding result (GST-hMSTN 101-200aa): no binding
B3: MST1572 (antibody, human IgG1, kappa, V domains shown)
VH: QSVEESGGRLVTPGTPLTLTCTVSGFSLSSYAMSWVRQAPGKGLEWIGIIYGVGSTYYASWAKGRFTISKTSTTVDLKIASPTTEDTATYFCARDDYGWGYTNLWGPGTLVTVSS
VL: QVLTQTPSSVSAAVGGTVTINCQSSQSVYNNNYLAWFQQKPGQPPKLLIYDASKLASGVPSRFKGSGSGTQFTLTISGVQCDDAATYYCQGSYYSSGWYRAFGGGTKVEIKR
